Reference: the supplement of paper PMC9942255

System: Bacillus subtilis DB104 (SP-AmyQ fusion secretion)
Experiment: AmyQ secretion efficiency, weighted average sort bin (1 = best secretion, 10 = worst) (bin number (weighted average, 1-10)); higher = lower secretion efficiency
Outline: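 A B. subtilis DB104 library carrying amyE-integrated fusions of designed signal peptides to mature AmyQ was encapsulated at about 0.3 cells per ~65 nL alginate bead with fluorescein-starch and grown about 13 h at room temperature. Following nile red staining, occupied beads were flow-sorted as large particles into 10 equally populated bins by green/red fluorescence ratio, and the bin amplicons were Illumina-sequenced. The secretion score is the read-frequency-weighted average bin number normalised to beads per bin, leaving out low-abundance sequences.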

Sequence | AmyQ secretion efficiency
MLCVMMLLFSAIASFPVSWQAKDQ | 6.99
MLCVMMLLFSAIASFPVSYQAKDQ | 6.1
MLCVMMLLFSAIASTPVSAQAKDQ | 5.3
MLCVMMLLFSAIATFVVVAQAKDQ | 6.49
MLCVMMLLFSAIAVSFPVSAQAKDQ | 5.09
MLCVMMLLFSSFPVSAQAKDQ | 5.51
MLFIFVITCVMAASLTLGSLLPAGYATAKED | 4.43
MLFKKWMVGLLAGCLAAGGFSYNAFATEN | 4.2
MLFLLVSLRVWMVFLMNWVTPDRKTAAAAVY | 6.62
MLFNTSFVSSLFISSAVLLSILLPSGQAHAQSA | 2.42
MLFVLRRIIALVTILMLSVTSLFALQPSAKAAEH | 1.93
MLGIRLLTIYIMLLGLIAWFPGAAQAEEK | 2.38
MLGKIALTLCPAIVGSLLFFTAPASAHVS | 2.47
MLGMGWMVGLLAGCLAAGGFSYNAFATEN | 6.54
MLGSTSFVSSLFISSAVLLSILLPSGQAHAQSA | 2.1
MLIRKRRNFKRFIAAFLVLALMISLVPADVLAKST | 1.85
MLKFLKSNFRFLLAAALGISLLASSNFIKASND | 3.52
MLKGIIRFLLVSFVLFFALSTGITGVQAAPA | 2.22
MLKKIALILCIAIVFFLLFFSAPASAHVS | 3.76
MLKKIALTLCPAIVAPASAHVS | 6.21
MLKKIALTLCPAIVGSLLAPASAHVS | 4.32
MLKKIALTLCPAIVGSLLFFTAGASAHVS | 3.12
MLKKIALTLCPAIVGSLLFFTAIASAHVS | 3.46
MLKKIALTLCPAIVGSLLFFTAPAPVAVASFAAAASAHVS | 5.09
MLKKIALTLCPAIVGSLLFFTAPASADEE | 3.58
MLKKIALTLCPAIVGSLLFFTAPASAHEE | 2.4

Sequence | AmyQ secretion efficiency
MLKKIALTLCPAIVGSLLFFTAPASAHKK | 1.72
MLKKIALTLCPAIVGSLLFFTAPASAHVE | 2.48
MLKKIALTLCPAIVGSLLFFTAPASAHVK | 2.44
MLKKIALTLCPAIVGSLLFFTAPASARKR | 6.88
MLKKIALTLCPAIVGSLLFFTAPASDHVS | 5.33
MLKKIALTLCPAIVGSLLFFTAPASEHVS | 6.03
MLKKIALTLCPAIVGSLLFFTAPASFHVS | 7.41
MLKKIALTLCPAIVGSLLFFTAPASGHVS | 2.72
MLKKIALTLCPAIVGSLLFFTAPASKHVS | 5.12
MLKKIALTLCPAIVGSLLFFTAPASMHVS | 4.09
MLKKIALTLCPAIVGSLLFFTAPASPHVS | 8.85
MLKKIALTLCPAIVGSLLFFTAPASQHVS | 5.33
MLKKIALTLCPAIVGSLLFFTAPASRHVS | 6.05
MLKKIALTLCPAIVGSLLFFTAPASSHVS | 4.06
MLKKIALTLCPAIVGSLLFFTAPASTHVS | 5.85
MLKKIALTLCPAIVGSLLFFTAPASVHVS | 6.13
MLKKIALTLCPAIVGSLLFFTAPCSAHVS | 3.32
MLKKIALTLCPAIVGSLLFFTAPDSAHVS | 6.1
MLKKIALTLCPAIVGSLLFFTAPESAHVS | 5.94
MLKKIALTLCPAIVGSLLFFTAPFSAHVS | 5.46
MLKKIALTLCPAIVGSLLFFTAPHSAHVS | 5.59
MLKKIALTLCPAIVGSLLFFTAPKSAHVS | 5.03
MLKKIALTLCPAIVGSLLFFTAPLSAHVS | 3.94
MLKKIALTLCPAIVGSLLFFTAPNSAHVS | 6.42
MLKKIALTLCPAIVGSLLFFTAPPFSASAHVS | 4.02
MLKKIALTLCPAIVGSLLFFTAPPSAHVS | 6.86

Sequence | AmyQ secretion efficiency
MLKKIALTLCPAIVGSLLFFTAPQSAHVS | 5.63
MLKKIALTLCPAIVGSLLFFTAPRSAHVS | 5.22
MLKKIALTLCPAIVGSLLFFTAPSSAHVS | 3.86
MLKKIALTLCPAIVGSLLFFTAPTSAHVS | 3.63
MLKKIALTLCPAIVGSLLFFTAPWSAHVS | 4.74
MLKKIALTLCPAIVGSLLFFTDEDASAHVS | 4.47
MLKKIALTLCPAIVGSLLFFTDEDDEEASAHVS | 5.14
MLKKIALTLCPAIVGSLLFFTGPASAHVS | 2.54
MLKKIALTLCPAIVGSLLFFTKPQASAHVS | 3.85
MLKKIALTLCPAIVGSLLFFTKRKKRKASAHVS | 7.45
MLKKIALTLCPAIVGSLLFFTRKKASAHVS | 7.46
MLKKIALTLCPAIVGSLLFFTVAPASAHVS | 3.73
MLKKIALTLCPAIVGSLLFFTVILITAPASAHVS | 3.87
MLKKIARRKCKKRVGSLLFFTAPASAHVS | 7.33
MLKKIGYQGCPRSYGSLLFFTAPASAHVS | 7.75
MLKKIMNLNMMMALTLCPAIVGSLLFFTAPASAHVS | 2.77
MLKKKKTQYQILVGSTLGAFSFSSDASAKHV | 5.99
MLKKKWMLMVGLLAGCLAAGGFSYNAFATEN | 4.46
MLKKKWMTGGTKRCLAAGGFSYNAFATEN | 7.54
MLKKKWMTRGLAGCLAAGGFSYNAFATEN | 6.77
MLKKKWMVFLLAICLAAFGFSYNAFATEN | 3.29
MLKKKWMVGLLAGCLAAGDDEYNAFATEN | 4.98
MLKKKWMVGLLAGCLAAGEDDEEDAFATEN | 5.44
MLKKKWMVGLLAGCLAAGEEPYNAFATEN | 4.04
MLKKKWMVGLLAGCLAAGFFGYNAFATEN | 6.85
MLKKKWMVGLLAGCLAAGGAFATEN | 6.32

Sequence | AmyQ secretion efficiency
MLKKKWMVGLLAGCLAAGGFSYNAFADEE | 6.94
MLKKKWMVGLLAGCLAAGGFSYNAFAKRK | 5.47
MLKKKWMVGLLAGCLAAGGFSYNAFATEE | 3.49
MLKKKWMVGLLAGCLAAGGFSYNAFATKK | 4.27
MLKKKWMVGLLAGCLAAGGFSYNAFATPR | 3.48
MLKKKWMVGLLAGCLAAGGFSYNAFATSD | 4.28
MLKKKWMVGLLAGCLAAGGFSYNAFCTEN | 6.56
MLKKKWMVGLLAGCLAAGGFSYNAFDTEN | 6.19
MLKKKWMVGLLAGCLAAGGFSYNAFETEN | 6.72
MLKKKWMVGLLAGCLAAGGFSYNAFFTEN | 6.5
MLKKKWMVGLLAGCLAAGGFSYNAFHTEN | 6.18
MLKKKWMVGLLAGCLAAGGFSYNAFITEN | 6.43
MLKKKWMVGLLAGCLAAGGFSYNAFKTEN | 5.95
MLKKKWMVGLLAGCLAAGGFSYNAFLTEN | 6.4
MLKKKWMVGLLAGCLAAGGFSYNAFMTEN | 6.25
MLKKKWMVGLLAGCLAAGGFSYNAFNTEN | 6.56
MLKKKWMVGLLAGCLAAGGFSYNAFPTEN | 5.71
MLKKKWMVGLLAGCLAAGGFSYNAFQTEN | 6.95
MLKKKWMVGLLAGCLAAGGFSYNAFRTEN | 5.68
MLKKKWMVGLLAGCLAAGGFSYNAFSTEN | 6.06
MLKKKWMVGLLAGCLAAGGFSYNAFTTEN | 6.95
MLKKKWMVGLLAGCLAAGGFSYNAFVTEN | 7.21
MLKKKWMVGLLAGCLAAGGFSYNAFWTEN | 6.56
MLKKKWMVGLLAGCLAAGGFSYNAFYTEN | 6.38
MLKKKWMVGLLAGCLAAGGFSYNCFATEN | 3.91
MLKKKWMVGLLAGCLAAGGFSYNDFATEN | 5.83

Sequence | AmyQ secretion efficiency
MLKKKWMVGLLAGCLAAGGFSYNEFATEN | 6.42
MLKKKWMVGLLAGCLAAGGFSYNFFATEN | 6.27
MLKKKWMVGLLAGCLAAGGFSYNGFATEN | 6.08
MLKKKWMVGLLAGCLAAGGFSYNGSFVAFATEN | 3.96
MLKKKWMVGLLAGCLAAGGFSYNHFATEN | 6.62
MLKKKWMVGLLAGCLAAGGFSYNKFATEN | 7.42
MLKKKWMVGLLAGCLAAGGFSYNLFATEN | 5.92
MLKKKWMVGLLAGCLAAGGFSYNMFATEN | 6.41
MLKKKWMVGLLAGCLAAGGFSYNNFATEN | 6.75
MLKKKWMVGLLAGCLAAGGFSYNQFATEN | 6.91
MLKKKWMVGLLAGCLAAGGFSYNRFATEN | 6.33
MLKKKWMVGLLAGCLAAGGFSYNSFATEN | 5.59
MLKKKWMVGLLAGCLAAGGFSYNSPPFFFGAAFATEN | 5.86
MLKKKWMVGLLAGCLAAGGFSYNTFATEN | 5.24
MLKKKWMVGLLAGCLAAGGFSYNVFATEN | 5.37
MLKKKWMVGLLAGCLAAGGFSYNWFATEN | 6.53
MLKKKWMVGLLAGCLAAGKKKYNAFATEN | 7.66
MLKKKWMVGLLAGCLAAGRKKKKKAFATEN | 7.31
MLKKKWMVGLLAGCLAAGSAGFSYNAFATEN | 4.95
MLKKKWMVGLLAGCLAAGTTSAAFTFFTGFSYNAFATEN | 7.04
MLKKKWMVGLLAGCLAAGVALALSGFSYNAFATEN | 5.02
MLKKKWMVGLLAGCLAGFSYNAFATEN | 5.96
MLKKKWMVKKKRRCKAAGGFSYNAFATEN | 7.54
MLKKKWMVKRLAGCLAAGGFSYNAFATEN | 7.03
